Experimental data taken from publication PMC2976847 (Frontiers in bioscience : a journal and virtual library, 2008).
Values joined by “and” are separate entries in the source; they are usually repeats but may differ in a detail not shown here. Equal entries are not always repeated.

Biological target: the molecule itself
Assay: native gel or EMSA

B1: Stat5a (wild type), from Epo-stimulated 293T cells (natural protein)
chain: MAGWIQAQQLQGDALRQMQVLYGQHFPIEVRHYLAQWIESQPWDAIDLDNPQDRGQATQLLEGLVQELQKKAEHQVGEDGFLLKIKLGHYATQLQNTYDRCPMELVRCIRHILYNEQRLVREANNCSSPAGVLVDAMSQKHLQINQRFEELRLITQDTENELKKLQQTQEYFIIQYQESLRIQAQFAQLGQLNPQERMSRETALQQKQVSLETWLQREAQTLQQYRVELAEKHQKTLQLLRKQQTIILDDELIQWKRRQQLAGNGGPPEGSLDVLQSWCEKLAEIIWQNRQQIRRAEHLCQQLPIPGPVEEMLAEVNATITDIISALVTSTFIIEKQPPQVLKTQTKFAATVRLLVGGKLNVHMNPPQVKATIISEQQAKSLLKNENTRNECSGEILNNCCVMEYHQATGTLSAHFRNMSLKRIKRADRRGAESVTEEKFTVLFESQFSVGSNELVFQVKTLSLPVVVIVHGSQDHNATATVLWDNAFAEPGRVPFAVPDKVLWPQLCEALNMKFKAEVQSNRGLTKENLVFLAQKLFNISSNHLEDYNSMSVSWSQFNRENLPGWNYTFWQWFDGVMEVLKKHHKPHWNDGAILGFVNKQQAHDLLINKPDGTFLLRFSDSEIGGITIAWKFDSPDRNLWNLKPFTTRDFSIRSLADRLGDLNYLIYVFPDRPKDEVFAKYYTPVLAKAVDGYVKPQIKQVVPEFVNASTDAGASATYMDQAPSPVVCPQPHYNMYPPNPDPVLDQDGEFDLDESMDVARHVEELLRRPMDSLDARLSPPAGLFTSARSSLS
Q: With B1 as the protein, how does the “stoichiometry N” value read?
A: 4 and 2
